B1: [35S]-methionine-labelled D2[IL3-2] probe (peptide)
chain: EAARRAQELEMEMLSSTSPPERTRYSPIPPSHHQLTLPDPSHHGLHSTPDSPAKPEKNGHAKDHPKIAKIFEIQTMPNGKTRTSLKTMSRRKLSQQKEKKATQ
modifications: [35S]-methionine-labelled
notes: also called [35S]-D2[IL3-2]

Key:
[1] = molecular target: B1; assay: conclusion from the peptide competition in the in vitro binding assay (GST-DAT[NT1] with [35S]-D2[IL3-2])
Description: (§1) The beads were then washed 4-6 times with PBS containing 0.5% Triton X-100 and eluted with 10 mM glutathione elution buffer. Eluates were separated by SDS-PAGE and visualized by autoradiography.

[2] = molecular target: T1, GST fused DAT[NT1] (M1-P26) (UniProt P08515 1-218 = GST); assay: in vitro binding assay, FIG. 1G
T1 construct: also called GST-DAT[NT1]
T1 sequence (P08515 1-218, tags or fused parts left off): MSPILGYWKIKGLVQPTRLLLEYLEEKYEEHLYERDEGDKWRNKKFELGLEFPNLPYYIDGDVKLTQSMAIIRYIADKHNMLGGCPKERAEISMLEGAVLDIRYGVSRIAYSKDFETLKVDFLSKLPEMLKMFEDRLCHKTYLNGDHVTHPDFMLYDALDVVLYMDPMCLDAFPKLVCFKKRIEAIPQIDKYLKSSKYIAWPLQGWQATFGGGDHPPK
Description: as §1

[3] = molecular target: T2, GST fused DAT[NT2] (A16-T43) (UniProt P08515 1-218 = GST); assay: in vitro binding assay: GST fusion on glutathione beads with the [35S]-D2[IL3-2] probe, autoradiography
T2 construct: also called GST-DAT[NT2]
T2 sequence (P08515 1-218, tags or fused parts left off): as above
Description: as §1

[4] = molecular target: T3, GST fused DAT[NT3] (K35-D68) (UniProt P08515 1-218 = GST); assay: as above
T3 construct: also called GST-DAT[NT3]
T3 sequence (P08515 1-218, tags or fused parts left off): as above
Description: as §1

Binder: MSKSKCSVGLMSSVV (also called DAT[NT1-1] peptide) [purified DAT[NT1-1] (M1-V15) peptide]
- binding result [1]: binds

Binder: B1
- binding result [2]: binds
- binding result [3]: no binding
- binding result [4]: no binding
